Here are results for one substance from doi:10.1101/2021.02.22.432209.

In this assay the target is GST-PreScission-p62 FIR 4P (human) (UniProt Q13501). Description: SPR. On the technique in general: Surface plasmon resonance follows binding to a sensor surface in real time, without labels.

On to “LC3B (1-125), His8-TEV-LC3B (from UniProt Q9GZQ8 1-120) (natural protein)”, for which the KD estimated from the kinetics of the sensorgrams was 80 nM and the half life was found to be 20 min.
